Measured values: US9320770B2, “Blood vessel maturation, normalization or stabilization agent and wrinkle preventer/improver” (Shiseido Company, Ltd., priority 2008, dated 2016)

B1: Ang-1: Angiopoietin-1 (R&D System, 932-AN), positive control known to activate Tie-2 (protein, UniProt Q15389 16-498, looked up)
Angiopoietin-1: HIGCSNQRRSPENSGRRYNRIQHGQCAYTFILPEHDGNCRESTTDQYNTNALQRDAPHVEPDFSSQKLQHLEHVMENYTQWLQKLENYIVENMKSEMAQIQQNAVQNHTATMLEIGTSLLSQTAEQTRKLTDVETQVLNQTSRLEIQLLENSLSTYKLEKQLLQQTNEILKIHEKNSLLEHKILEMEGKHKEELDTLKEEKENLQGLVTRQTYIIQELEKQLNRATTNNSVLQKQQLELMDTVHNLVNLCTKEGVLLKGGKREEEKPFRDCADVYQAGFNKSGIYTIYINNMPEPKKVFCNMDVNGGGWTVIQHREDGSLDFQRGWKEYKMGFGNPSGEYWLGNEFIFAITSQRQYMLRIELMDWEGNRAYSQYDRFHIGNEKQNYRLYLKGHTGTAGKQSSLILHGADFSTKDADNDNCMCKCALMLTGGWWFDACGPSNLNGMFYTAGQNHGKLNGIKWHYFKGPSYSLRSTTMMIRPLDF

Experiments:
Assay type in all cases: cell-based
[1] = tested on: Normal human umbilical vein endothelial cells and normal human dermal fibroblasts; test: Evaluation of angiogenesis inhibitory action (angiogenesis kit, lumen formation in the presence of VEGF-A)
Protocol: Evaluation of Angiogenesis Inhibitory Action
A test was conducted for confirming the angiogenesis inhibitory action of cinnamon bark hot water extract.
Normal human umbilical vein endothelial cells and normal human dermal fibroblasts were co-cultured at a constant ratio using an angiogenesis kit (Kurabo Industries) and prepared in the growth state of the initial stage of lumen formation. The cells were incubated (under conditions of 37° C. and 5% CO2) after adding medium containing a prescribed concentration of cinnamon bark hot water extract in the presence of 10 ng/ml of vascular endothelial cell growth factor A (VEGF-A, Kurabo Industries). […] The stained images obtained from each well were then photographed (FIG. 4), and the images were analyzed using the length and surface area of lumen formation as indicators to evaluate angiogenesis inhibitory action (FIGS. 5 and 6). Image analysis for the length of lumen formation and image analysis for surface area were respectively carried out using angiogenesis quantification software (Kurabo Industries). […] Moreover, angiogenesis inhibitory action in the presence of VGF-A was also evaluated for Ang-1, which is known to have an action that is responsible for vascular stabilization.

full-length murine TIE2 = biological target: T1, full-length murine TIE2 (Mus musculus, UniProt Q02858); test: Tie-2 phosphorylation evaluation in Baf3 cells (BaF/TIE2), Western blotting; details: extracts 100 ppm, Angiopoietin-1 0.5 ppm, 10 minutes, FIG. 1 and 2
T1 construct: Ba/F3 transduced with full-length murine TIE2(BaF/TIE2); expressed in transfected cells; host or cells: Ba/F3 (murine pro-B cell line)
T1 sequence (Q02858 23-1122): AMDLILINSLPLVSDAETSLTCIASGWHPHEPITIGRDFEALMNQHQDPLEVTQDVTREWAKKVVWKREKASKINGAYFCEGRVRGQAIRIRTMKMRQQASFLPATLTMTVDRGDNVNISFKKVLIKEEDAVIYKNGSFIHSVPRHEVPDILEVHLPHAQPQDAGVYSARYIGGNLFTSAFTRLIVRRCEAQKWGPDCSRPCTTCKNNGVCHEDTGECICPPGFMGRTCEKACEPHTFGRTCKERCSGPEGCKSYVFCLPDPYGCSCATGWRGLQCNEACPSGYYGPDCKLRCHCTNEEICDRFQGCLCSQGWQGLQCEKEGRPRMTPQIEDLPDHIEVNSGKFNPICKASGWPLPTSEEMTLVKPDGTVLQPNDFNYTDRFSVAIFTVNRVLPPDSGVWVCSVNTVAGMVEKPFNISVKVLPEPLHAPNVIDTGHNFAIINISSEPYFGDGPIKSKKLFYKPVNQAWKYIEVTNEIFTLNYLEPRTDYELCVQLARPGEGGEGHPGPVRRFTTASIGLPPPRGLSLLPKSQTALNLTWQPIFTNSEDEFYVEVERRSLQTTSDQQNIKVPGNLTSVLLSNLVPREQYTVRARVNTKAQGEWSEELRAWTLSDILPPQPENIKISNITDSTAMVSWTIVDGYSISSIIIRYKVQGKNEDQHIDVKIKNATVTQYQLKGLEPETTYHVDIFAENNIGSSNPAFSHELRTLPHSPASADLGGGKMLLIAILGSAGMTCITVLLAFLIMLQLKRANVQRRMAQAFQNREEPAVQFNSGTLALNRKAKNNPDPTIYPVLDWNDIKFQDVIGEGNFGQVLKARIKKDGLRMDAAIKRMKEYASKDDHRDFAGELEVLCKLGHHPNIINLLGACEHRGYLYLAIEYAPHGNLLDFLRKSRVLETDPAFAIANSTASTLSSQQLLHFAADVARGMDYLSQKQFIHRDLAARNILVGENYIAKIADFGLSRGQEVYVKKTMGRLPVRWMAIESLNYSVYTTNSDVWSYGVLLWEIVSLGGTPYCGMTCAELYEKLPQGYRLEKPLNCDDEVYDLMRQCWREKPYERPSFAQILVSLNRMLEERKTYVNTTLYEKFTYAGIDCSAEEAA
Protocol: Tie-2 Phosphorylation Evaluation Method
(§1) Baf3 cells, a murine pro-B cell line, Ba/F3 transduced with full-length murine TIE2(BaF/TIE2) were incubated in RPMI 1640 medium in the presence of IL-3 (Biosource, PMC0034) and 10% FCS. The cells were plated into a 6-well plate at 2×10^6 cells/1.5 mL/well and incubated overnight while omitting the FCS starting on the day before cell stimulation. DMSO solutions of the aforementioned hot water extract dry residues, Angiopoietin-1 (R&D System, 932-AN) as a positive control or DMSO as a negative control were added to the wells at a final concentration of 100 ppm, 0.5 ppm and 1000 ppm, respectively, followed by incubating for 10 minutes, cooling the cells on ice and washing with chilled PBS. The cells were then ultrasonically homogenized in RIPA buffer containing protease inhibitors (leupeptin, aprotinin, pepstatin, PMSF, Na3VO4). Sample buffer (0.2 M Tris-HCl (pH 6.8), 4% SDS, 20% glycerol, 5 mM EDTA, 0.01% BPB) was then added followed by carrying out SDS-PAGE (7.5% polyacrylamide gel, 12 wells, NPU-7.5L, Atto Corp.) under the conditions indicated below.
Gel: 7.5% acrylamide gel (NPU-7.5L, Atto Corp.)
Phoresis conditions: 40 mA (75 minutes, 2 gel sheets) […]
(§2) Next, Western blotting (20 V, 4° C., overnight) was carried out for transcription to a PVDF membrane. […] Protein bands were detected by chemiluminescence detection (ECL).

Tie-2 = biological target: T2, Tie-2 (Homo sapiens, UniProt Q02763); test: Tie-2 phosphorylation evaluation in HUVEC; details: evaluated in the same manner as Baf3 cells, FIG. 3
T2 construct: Tie-2 phosphorylation was similarly evaluated using normal human umbilical vein endothelial cells (HUVEC); endogenous in cells; host or cells: HUVEC (normal human umbilical vein endothelial cells)
T2 sequence (Q02763 23-1124): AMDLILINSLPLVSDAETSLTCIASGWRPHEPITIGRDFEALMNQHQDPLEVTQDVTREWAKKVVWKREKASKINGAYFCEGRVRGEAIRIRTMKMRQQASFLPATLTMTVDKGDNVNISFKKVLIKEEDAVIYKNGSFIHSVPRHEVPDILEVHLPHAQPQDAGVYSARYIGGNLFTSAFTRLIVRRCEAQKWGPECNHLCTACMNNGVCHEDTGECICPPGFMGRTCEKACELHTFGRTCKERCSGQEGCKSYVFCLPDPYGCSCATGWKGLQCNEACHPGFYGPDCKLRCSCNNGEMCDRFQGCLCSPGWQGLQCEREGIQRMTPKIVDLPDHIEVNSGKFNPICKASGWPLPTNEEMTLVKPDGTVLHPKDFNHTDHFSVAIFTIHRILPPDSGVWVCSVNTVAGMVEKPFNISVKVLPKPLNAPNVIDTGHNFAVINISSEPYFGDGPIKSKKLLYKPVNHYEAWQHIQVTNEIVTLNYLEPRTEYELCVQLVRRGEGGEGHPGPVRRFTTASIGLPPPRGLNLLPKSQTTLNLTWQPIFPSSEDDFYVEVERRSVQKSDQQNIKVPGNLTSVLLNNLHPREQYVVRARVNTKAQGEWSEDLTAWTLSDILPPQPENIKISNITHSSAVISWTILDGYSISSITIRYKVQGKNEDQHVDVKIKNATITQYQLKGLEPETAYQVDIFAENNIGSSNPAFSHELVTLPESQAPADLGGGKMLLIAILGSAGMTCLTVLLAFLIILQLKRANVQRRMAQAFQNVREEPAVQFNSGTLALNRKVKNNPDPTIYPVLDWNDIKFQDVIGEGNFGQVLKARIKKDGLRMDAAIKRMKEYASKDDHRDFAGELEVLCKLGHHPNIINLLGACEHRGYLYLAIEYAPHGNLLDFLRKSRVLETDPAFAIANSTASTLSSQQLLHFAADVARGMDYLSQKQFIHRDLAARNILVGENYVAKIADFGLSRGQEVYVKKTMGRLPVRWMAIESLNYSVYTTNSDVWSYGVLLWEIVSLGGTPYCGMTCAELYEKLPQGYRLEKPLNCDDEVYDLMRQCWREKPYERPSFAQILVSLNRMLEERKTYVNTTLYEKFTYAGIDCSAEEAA
Protocol: as §1, §2
2) Tie-2 phosphorylation was similarly evaluated using normal human umbilical vein endothelial cells (HUVEC). […]

Molecule | lumen formation (stained image) ([1]; cultured with VEGF-A 10 ng/ml, FIG. 4, cinnamon bark extract particularly at 300 ppm) | Tie-2 phosphorylation (full-length murine TIE2) | Tie-2 phosphorylation (Tie-2) | angiogenesis inhibitory action (length and surface area of lumen formation) ([1]; angiogenesis induced by VEGF-A 10 ng/ml, FIGS. 5 and 6, cinnamon bark extract 10 to 300 ppm)
Cc1ccc(C(=O)Nc2ccc(S(=O)(=O)O)c3cc(S(=O)(=O)O)cc(S(=O)(=O)O)c23)cc1NC(=O)c1cccc(NC(=O)Nc2cccc(C(=O)Nc3cc(C(=O)Nc4ccc(S(=O)(=O)O)c5cc(S(=O)(=O)O)cc(S(=O)(=O)O)c45)ccc3C)c2)c1 [Suramin, reference compound] | lumen formation was determined to be inhibited |  |  | 
B1 |  | phosphorylation of Tie-2 | phosphorylation of Tie-2 | did not have angiogenesis inhibitory action
